Test results as given in patent publication US20160039895A1 (published 2016).
Changes are numbered by the printed parent chain. Names and notes keep the numbering of the source. Each block holds one binder with its values, some of them ahead of it.

How the values were obtained:
[1] = target: T1, porcine αvβ3 integrin on PAE cells (porcine, UniProt A0A5K1V6L8 31-1052; A0A8D0RDV2 33-793); test: flow cytometry on PAE cells
T1 construct: whole, on cells

[2] = target: T2, human αvβ3 integrin on cells (human, UniProt P06756 31-1048; P05106 27-788); test: flow cytometry on K562-αvβ3 cells
T2 construct: whole, on cells; also called avb3; alpha v beta 3
T2 sequence (P06756 31-1048, chain 1 of 2): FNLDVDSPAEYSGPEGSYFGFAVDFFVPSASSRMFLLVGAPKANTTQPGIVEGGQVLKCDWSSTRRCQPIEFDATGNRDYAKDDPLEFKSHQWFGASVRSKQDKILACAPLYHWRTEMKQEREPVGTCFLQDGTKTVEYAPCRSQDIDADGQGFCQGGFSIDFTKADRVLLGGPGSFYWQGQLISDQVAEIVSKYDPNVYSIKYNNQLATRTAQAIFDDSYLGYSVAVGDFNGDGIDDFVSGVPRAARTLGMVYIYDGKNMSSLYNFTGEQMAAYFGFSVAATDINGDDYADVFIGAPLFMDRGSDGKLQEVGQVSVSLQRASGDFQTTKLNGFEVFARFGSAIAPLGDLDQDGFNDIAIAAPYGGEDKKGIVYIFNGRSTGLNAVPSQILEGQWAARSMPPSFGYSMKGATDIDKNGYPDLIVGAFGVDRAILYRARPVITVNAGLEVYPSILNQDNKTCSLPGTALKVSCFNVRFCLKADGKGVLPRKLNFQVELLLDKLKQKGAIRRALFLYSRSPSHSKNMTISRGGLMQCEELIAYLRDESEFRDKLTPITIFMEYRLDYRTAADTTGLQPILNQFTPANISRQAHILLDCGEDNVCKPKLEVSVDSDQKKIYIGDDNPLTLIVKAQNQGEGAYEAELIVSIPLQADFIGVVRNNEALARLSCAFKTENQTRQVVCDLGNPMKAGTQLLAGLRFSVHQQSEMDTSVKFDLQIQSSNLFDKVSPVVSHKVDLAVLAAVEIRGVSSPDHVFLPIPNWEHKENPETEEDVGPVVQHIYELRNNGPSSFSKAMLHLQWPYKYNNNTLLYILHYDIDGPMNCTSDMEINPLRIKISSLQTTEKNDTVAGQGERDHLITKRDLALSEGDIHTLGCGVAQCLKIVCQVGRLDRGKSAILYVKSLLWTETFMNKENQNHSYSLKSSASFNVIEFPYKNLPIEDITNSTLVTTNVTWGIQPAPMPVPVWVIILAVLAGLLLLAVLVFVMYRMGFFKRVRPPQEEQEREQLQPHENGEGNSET
T2 sequence (P05106 27-788, chain 2 of 2): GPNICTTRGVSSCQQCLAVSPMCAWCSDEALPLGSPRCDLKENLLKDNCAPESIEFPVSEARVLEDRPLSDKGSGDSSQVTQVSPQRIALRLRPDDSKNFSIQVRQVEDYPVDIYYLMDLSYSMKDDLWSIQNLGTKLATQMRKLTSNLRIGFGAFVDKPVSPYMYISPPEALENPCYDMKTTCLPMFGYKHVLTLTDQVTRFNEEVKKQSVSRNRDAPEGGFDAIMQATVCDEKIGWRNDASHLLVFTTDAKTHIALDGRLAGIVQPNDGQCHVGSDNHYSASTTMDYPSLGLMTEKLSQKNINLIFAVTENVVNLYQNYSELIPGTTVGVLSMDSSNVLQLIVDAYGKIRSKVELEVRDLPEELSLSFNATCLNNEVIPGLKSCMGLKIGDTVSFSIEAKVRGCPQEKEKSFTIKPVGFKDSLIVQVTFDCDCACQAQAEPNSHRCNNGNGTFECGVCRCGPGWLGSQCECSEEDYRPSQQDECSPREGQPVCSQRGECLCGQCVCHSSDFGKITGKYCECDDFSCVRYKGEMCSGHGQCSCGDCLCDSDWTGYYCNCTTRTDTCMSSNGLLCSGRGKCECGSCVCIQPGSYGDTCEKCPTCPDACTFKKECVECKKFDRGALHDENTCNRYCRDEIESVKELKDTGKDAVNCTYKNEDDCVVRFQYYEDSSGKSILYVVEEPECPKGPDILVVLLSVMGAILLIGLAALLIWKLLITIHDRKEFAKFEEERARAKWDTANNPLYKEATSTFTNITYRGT

[3] = target: T3, human VEGFR2 on cells (PAE/KDR cells, HUVEC) (human, UniProt P35968 20-1356); test: flow cytometry titration on HUVEC, anti-FLAG detection
T3 construct: whole, on cells
T3 sequence (P35968 20-1356): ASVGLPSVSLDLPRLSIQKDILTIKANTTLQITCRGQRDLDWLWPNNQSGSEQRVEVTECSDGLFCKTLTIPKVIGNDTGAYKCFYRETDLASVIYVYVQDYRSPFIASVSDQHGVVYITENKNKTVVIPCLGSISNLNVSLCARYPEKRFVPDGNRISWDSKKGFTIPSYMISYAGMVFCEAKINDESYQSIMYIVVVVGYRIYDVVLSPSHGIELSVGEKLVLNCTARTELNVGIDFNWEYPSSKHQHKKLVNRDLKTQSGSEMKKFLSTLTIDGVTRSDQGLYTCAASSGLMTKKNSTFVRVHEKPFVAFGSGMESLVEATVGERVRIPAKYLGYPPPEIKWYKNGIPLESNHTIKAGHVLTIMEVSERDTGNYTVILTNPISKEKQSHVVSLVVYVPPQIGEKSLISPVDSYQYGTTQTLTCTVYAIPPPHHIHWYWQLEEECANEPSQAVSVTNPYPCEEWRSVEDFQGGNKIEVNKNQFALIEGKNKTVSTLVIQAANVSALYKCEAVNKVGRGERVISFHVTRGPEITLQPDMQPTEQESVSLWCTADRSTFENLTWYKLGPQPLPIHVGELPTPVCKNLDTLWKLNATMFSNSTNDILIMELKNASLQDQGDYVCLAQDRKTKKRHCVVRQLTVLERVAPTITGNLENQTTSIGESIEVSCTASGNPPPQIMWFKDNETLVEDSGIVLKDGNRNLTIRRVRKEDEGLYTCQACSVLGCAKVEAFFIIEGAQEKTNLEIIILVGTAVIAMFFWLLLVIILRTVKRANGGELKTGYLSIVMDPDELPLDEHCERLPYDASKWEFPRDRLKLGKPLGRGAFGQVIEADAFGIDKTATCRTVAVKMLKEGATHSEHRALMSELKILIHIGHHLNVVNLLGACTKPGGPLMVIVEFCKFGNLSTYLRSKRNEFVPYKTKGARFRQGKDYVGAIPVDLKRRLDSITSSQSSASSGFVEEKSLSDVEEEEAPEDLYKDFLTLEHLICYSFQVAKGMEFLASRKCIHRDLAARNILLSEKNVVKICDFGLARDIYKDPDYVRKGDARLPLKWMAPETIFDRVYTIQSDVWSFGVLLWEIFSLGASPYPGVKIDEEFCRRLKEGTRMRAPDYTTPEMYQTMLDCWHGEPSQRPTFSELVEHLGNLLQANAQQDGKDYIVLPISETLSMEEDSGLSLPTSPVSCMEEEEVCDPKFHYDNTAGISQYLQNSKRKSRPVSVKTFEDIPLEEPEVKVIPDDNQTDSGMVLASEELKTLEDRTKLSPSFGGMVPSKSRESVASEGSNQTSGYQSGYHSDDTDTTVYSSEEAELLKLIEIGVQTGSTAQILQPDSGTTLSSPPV

[4] = target: T4, VEGFR2 on SVR angiosarcoma cells (murine cell line) (murine, UniProt P35918 20-1345); test: flow cytometry titration on SVR cells, anti-FLAG detection
T4 construct: whole, on cells

[5] = target: T3, human VEGFR2 on cells (PAE/KDR cells, …); test: flow cytometry titration on PAE/KDR cells, anti-FLAG detection
[6] = target: T5, recombinant human VEGFR2 extracellular domain (human, UniProt P35968 20-764); test: SPR (BIAcore 3000), VEGFR2 amine-coupled to CM5 chip, scVEGF as analyte, 1:1 model
T5 construct: extracellular domain; also called KDR; Flk-1
T5 sequence (P35968 20-764): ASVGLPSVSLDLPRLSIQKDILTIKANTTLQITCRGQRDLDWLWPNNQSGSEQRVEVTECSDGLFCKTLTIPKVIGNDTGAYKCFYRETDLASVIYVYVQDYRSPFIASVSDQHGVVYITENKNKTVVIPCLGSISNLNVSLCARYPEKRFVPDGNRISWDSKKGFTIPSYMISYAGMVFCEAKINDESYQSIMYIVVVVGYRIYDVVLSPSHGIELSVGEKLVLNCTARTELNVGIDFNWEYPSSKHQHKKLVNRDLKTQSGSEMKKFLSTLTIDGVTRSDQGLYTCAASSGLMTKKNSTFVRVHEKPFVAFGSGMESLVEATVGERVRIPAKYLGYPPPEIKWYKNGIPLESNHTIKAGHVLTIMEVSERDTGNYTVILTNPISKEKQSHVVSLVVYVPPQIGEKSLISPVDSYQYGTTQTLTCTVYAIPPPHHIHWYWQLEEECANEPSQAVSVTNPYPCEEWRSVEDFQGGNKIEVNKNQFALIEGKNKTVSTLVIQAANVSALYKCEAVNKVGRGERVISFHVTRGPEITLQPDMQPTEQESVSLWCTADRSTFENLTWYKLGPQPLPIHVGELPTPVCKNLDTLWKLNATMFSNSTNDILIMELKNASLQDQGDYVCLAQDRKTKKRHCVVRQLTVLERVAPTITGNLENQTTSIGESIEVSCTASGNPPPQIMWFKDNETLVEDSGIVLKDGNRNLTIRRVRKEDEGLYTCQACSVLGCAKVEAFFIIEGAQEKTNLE

[7] = target: T2, human αvβ3 integrin on cells; test: flow cytometry on U87MG cells (no VEGFR2; receptor not named by the filing)
[8] = target: T3, human VEGFR2 on cells (PAE/KDR cells, …); test: flow cytometry titration on HUVEC, optimized conditions of Example 3, anti-FLAG detection
[9] = target: T4, VEGFR2 on SVR angiosarcoma cells …; test: flow cytometry titration on SVR cells, optimized conditions of Example 3, anti-FLAG detection
[10] = target: T3, human VEGFR2 on cells (PAE/KDR cells, …); test: flow cytometry titration on PAE/KDR cells, optimized conditions of Example 3, anti-FLAG detection
[11] = target: VEGFR2 and αvβ3 integrin, both expressed on human umbilical vein endothelial cells (HUVEC) (human) (UniProt P35968); test: cell-based or functional assay
Sequence of VEGFR2 and αvβ3 integrin, both expressed on human umbilical vein endothelial cells (HUVEC) (human) (P35968 20-1356, chain 1 of 3): as the sequence (P35968 20-1356) above
Sequence of VEGFR2 and αvβ3 integrin, both expressed on human umbilical vein endothelial cells (HUVEC) (human) (P06756 31-1048, chain 2 of 3, further chain): as the sequence (P06756 31-1048, chain 1 of 2) above
Sequence of VEGFR2 and αvβ3 integrin, both expressed on human umbilical vein endothelial cells (HUVEC) (human) (P05106 27-788, chain 3 of 3, further chain): as the sequence (P05106 27-788, chain 2 of 2) above

[12] = target: T2, human αvβ3 integrin on cells; test: cell-based or functional assay
[13] = target: T6, α5β1 integrin on wild-type K562 cells (UniProt P08648 42-1049; P05556 21-798, limits assumed); test: flow cytometry on wild-type K562 cells
T6 construct: whole, on cells

[14] = target: T7, αvβ5 integrin on transfected K562 cells (UniProt P06756 31-1048; P18084 24-799, limits assumed); test: flow cytometry on K562 cells transfected with αvβ5
T7 construct: whole, on cells

[15] = target: T8, αiibβ3 integrin on transfected K562 cells (UniProt P08514 32-1039; P05106 27-788, limits assumed); test: flow cytometry on K562 cells transfected with αiibβ3
T8 construct: whole, on cells
T8 sequence (P08514 32-1039 limits assumed, chain 1 of 2): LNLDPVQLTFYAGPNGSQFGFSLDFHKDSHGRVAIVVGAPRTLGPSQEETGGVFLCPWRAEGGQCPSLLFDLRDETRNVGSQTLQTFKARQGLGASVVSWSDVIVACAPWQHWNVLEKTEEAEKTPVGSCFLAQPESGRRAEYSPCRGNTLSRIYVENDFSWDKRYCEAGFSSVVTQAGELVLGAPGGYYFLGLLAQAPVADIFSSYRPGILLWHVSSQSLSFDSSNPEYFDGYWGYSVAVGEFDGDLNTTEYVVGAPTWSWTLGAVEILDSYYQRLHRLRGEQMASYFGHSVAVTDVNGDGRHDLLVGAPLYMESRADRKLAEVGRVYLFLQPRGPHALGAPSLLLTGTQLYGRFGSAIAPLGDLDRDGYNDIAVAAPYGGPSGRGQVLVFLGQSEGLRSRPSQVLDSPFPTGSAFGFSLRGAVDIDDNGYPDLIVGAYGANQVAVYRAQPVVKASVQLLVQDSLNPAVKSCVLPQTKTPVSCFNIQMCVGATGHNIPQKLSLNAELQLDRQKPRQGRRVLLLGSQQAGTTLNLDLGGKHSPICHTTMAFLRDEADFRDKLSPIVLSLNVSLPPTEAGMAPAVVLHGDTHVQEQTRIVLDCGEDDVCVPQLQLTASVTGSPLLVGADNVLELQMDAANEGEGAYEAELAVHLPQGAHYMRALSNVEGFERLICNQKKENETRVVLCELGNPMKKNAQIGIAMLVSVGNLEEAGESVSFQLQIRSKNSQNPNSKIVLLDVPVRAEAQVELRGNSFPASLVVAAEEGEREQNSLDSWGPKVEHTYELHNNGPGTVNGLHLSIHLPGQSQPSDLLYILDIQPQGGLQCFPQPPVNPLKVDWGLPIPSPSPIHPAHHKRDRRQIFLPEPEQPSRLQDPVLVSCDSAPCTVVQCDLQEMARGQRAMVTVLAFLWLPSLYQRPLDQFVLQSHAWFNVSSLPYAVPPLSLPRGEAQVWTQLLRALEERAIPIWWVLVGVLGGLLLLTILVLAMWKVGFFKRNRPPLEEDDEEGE
T8 sequence (P05106 27-788 limits assumed, chain 2 of 2): as the sequence (P05106 27-788, chain 2 of 2) above

[16] = target: T1, porcine αvβ3 integrin on PAE cells; test: flow cytometry titration on PAE cells, anti-FLAG detection
[17] = target: T2, human αvβ3 integrin on cells; test: flow cytometry titration on K562-αvβ3 cells, anti-His detection
[18] = target: VEGFR2 and αvβ3 integrin, both expressed on human umbilical vein endothelial cells (HUVEC) (human) (UniProt P35968); test: flow cytometry titration on HUVEC (VEGFR2 and αvβ3 both present), anti-FLAG detection
[19] = target: VEGFR2 and αvβ3 integrin, both expressed on SVR angiosarcoma cells (murine cell line) (murine) (UniProt P35918); test: flow cytometry titration on SVR cells (VEGFR2 and αvβ3 both present), anti-FLAG detection
[20] = target: T2, human αvβ3 integrin on cells; test: flow cytometry titration on U87MG cells (no VEGFR2; receptor not named by the filing), anti-FLAG detection
[21] = target: T3, human VEGFR2 on cells (PAE/KDR cells, …); test: flow cytometry titration on PAE/KDR cells (also carry porcine αvβ3; filing ascribes binding to VEGFR2), anti-FLAG detection
[22] = target: T4, VEGFR2 on SVR angiosarcoma cells …; test: flow cytometry on SVR cells
[23] = target: T2, human αvβ3 integrin on cells; test: flow cytometry titration on K562-αvβ3 cells

B1: scVEGFwt (ligand)
chain: YVEVVKFMDVYQRSYCHPIETLVDIFQEYPDEIEYIFKPSCVPLMRCGGCCNDEGLECVPTEESNITMQIMRIKPHQGQHIGEMSFLQHNKCECRPKKDGSTSGSGKSSEGKGEVVKFMDVYQRSYCHPIETLVDIFQEYPDEIEYIFKPSCVPLMRCGGCCNDEGLECVPTEESNITMQIMRIKPHQGQHIGEMSFLQHNKCECRPKKDTR
notes: also called wild-type scVEGF; single-chain VEGF
binding result [1]: no binding (tested: 1 µM) | binding result [2]: no binding (tested: 1 µM) | Kd [3]: 28 nM | Kd [4]: 32 nM | Kd [5]: 9.8 nM | Kd [6]: 4 nM | koff [6]: 0.0007 s⁻¹ | kon [6]: 200000 M⁻¹ s⁻¹

B4: scVEGF-mM (designed binder)
chain: EVVKAMDVYRRSYCHPVETSVDILQEYPDEIEYIFKPSCVPLMRCGGCCNDAGLECVPTEESNTTMQIMRIKPYRGQHIGEMSFLQHNKCECRPKKDGSTSGSGKSSEGKGEVVKFMDVYQRSYCHPIETLVDIFQEYPDEIEYAFKPSCVSLMRCGGCCNNEGLECVPTEESNITVQIMGAKPHQGQHIGEMSFLQHNKCECRPKKD
notes: Soluble protein with C-terminal hexahistidine tag, with or without N-terminal FLAG tag (tags not included in the parts); also called scVEGFmut-M
binding result [1]: no binding (tested: 1 µM) | binding result [22]: no binding (tested: 1 µM) | binding result [13]: no binding | binding result [14]: no binding | binding result [15]: no binding | Kd [5]: 34 nM | binding result [7]: no binding (tested: 1 µM) | Kd [6]: 3.8 nM | koff [6]: 0.00108 s⁻¹ | kon [6]: 290000 M⁻¹ s⁻¹

B5: scVEGFrgd-7H (designed binder)
chain: EVVKAMDVYQRSYCHPIETLVDIFQEYPDEIEYIFKPSCVPLMRCGGCCNDAGLECVPTEESNITMQIMRIKPHQGQHIGEMSFLQHNKCECRPKKDGSTSGSGKSSEGKGEVVKFMDVYQRSYCHPIETLVDIFQEYPDEIEYAFKPSCVPLMRCGGCCNDEGLECVPTEESNITMQIMRPGGRGDSAYHIGEMSFLQHNKCECRPKKDTR
notes: Soluble protein from P. pastoris with C-terminal hexahistidine tag, with or without N-terminal FLAG tag; also called scVEGF-7H
IC50 of inhibition of vitronectin-mediated adhesion of HUVEC cells [12]: < 10 nM | binding result [13]: no binding | binding result [14]: no binding | binding result [15]: no binding | Kd [16]: 26.5 nM | Kd [17]: 36 nM | Kd [18]: 12 nM | Kd [19]: 18 nM | Kd [20]: 15.6 nM | Kd [21]: 16 nM

B6: scVEGFrgd-7P (designed binder)
chain: B5 chain with G183A, G184S, A189P, Y190P
notes: Soluble protein from P. pastoris with C-terminal hexahistidine tag, with or without N-terminal FLAG tag; also called scVEGF-7P
IC50 of inhibition of vitronectin-mediated adhesion of HUVEC cells [12]: < 10 nM | binding result [13]: no binding | binding result [14]: no binding | binding result [15]: no binding | Kd [16]: 26.9 nM | Kd [17]: 37 nM | Kd [18]: 45 nM | Kd [19]: 31 nM | Kd [20]: 29 nM | Kd [21]: 21 nM

B8: scVEGF-mA (designed binder)
chain: EVAKAMDVYQKSYCHPIETLVDILQEYPDEIGYIFKPSCVPLMRCGGCCNDAGLECVPTEESNITMQIMRIKPYQGQHIGEMSFLQHNKCECRPKKDGSTSGSGKSSEGKGEVVKFMDVYQRSYCHPIETLVDIFQEYPDKIEYAFKPSCVPLMRCGGCCNNEGLECVPTEESNITMQITRAKPHQGQHIGEMSFLQHNKCECRPKKD
notes: Soluble protein from P. pastoris with C-terminal hexahistidine tag, with or without N-terminal FLAG tag (tags not included in the parts); also called scVEGFmut-A
binding result [1]: no binding (tested: 1 µM) | binding result [13]: no binding | binding result [14]: no binding | binding result [15]: no binding | Kd [3]: 36 nM | Kd [4]: 13 nM | Kd [5]: 5.7 nM | binding result [7]: no binding (tested: 1 µM) | Kd [6]: 2.1 nM | koff [6]: 0.00049 s⁻¹ | kon [6]: 240000 M⁻¹ s⁻¹ | Kd [10]: 0.5 nM

B10: scVEGF-mJ (designed binder)
chain: B8 chain with V2I, A3V, M6R, K11R, G32E, Q77H, K141E, T180M, I190T
notes: Soluble protein with C-terminal hexahistidine tag, with or without N-terminal FLAG tag (tags not included in the parts); also called scVEGFmut-J
binding result [1]: no binding (tested: 1 µM) | binding result [13]: no binding | binding result [14]: no binding | binding result [15]: no binding | Kd [3]: 39 nM | Kd [4]: 3 nM | Kd [5]: 6.9 nM | binding result [7]: no binding (tested: 1 µM) | Kd [6]: 1.6 nM | koff [6]: 0.0003 s⁻¹ | kon [6]: 200000 M⁻¹ s⁻¹ | Kd [10]: 0.5 nM

Next, values leading:

binding result [1]: no binding (tested: 1 µM) | Kd [3]: 101 nM | Kd [5]: 17 nM | binding result [7]: no binding (tested: 1 µM) | Kd [6]: 18 nM | koff [6]: 0.00146 s⁻¹ | kon [6]: 83000 M⁻¹ s⁻¹ | Kd [8]: 44 nM | Kd [9]: > 40 nM | Kd [10]: 55 nM
B2: scVEGFmut (designed binder)
chain: B1 chain with F7A, E54A, I147A, I184A
notes: scVEGF with chain 1 F17A, E64A and chain 2 I46A, I83A (VEGF121 numbering); Soluble protein from P. pastoris with C-terminal hexahistidine tag, with or without N-terminal FLAG tag

inhibition of VEGF-induced autophosphorylation of VEGFR-2 in HUVEC in the presence of vitronectin [11]: 80% | IC50 of inhibition of vitronectin-mediated adhesion of HUVEC cells [12]: < 10 nM | binding result [13]: no binding | binding result [14]: no binding | binding result [15]: no binding | Kd [16]: 18.6 nM | Kd [17]: 34 nM | Kd [18]: 6 nM | Kd [19]: 37 nM | Kd [20]: 13.9 nM | Kd [21]: 20 nM
B3: scVEGFrgd-7I (designed binder)
chain: EVVKAMDVYQRSYCHPIETLVDIFQEYPDEIEYIFKPSCVPLMRCGGCCNDAGLECVPTEESNITMQIMRIKPHQGQHIGEMSFLQHNKCECRPKKDGSTSGSGKSSEGKGEVVKFMDVYQRSYCHPIETLVDIFQEYPDEIEYAFKPSCVPLMRCGGCCNDEGLECVPTEESNITMQIMRPSVRRGDSPASHIGEMSFLQHNKCECRPKKDTR
notes: Soluble protein from P. pastoris with C-terminal hexahistidine tag, with or without N-terminal FLAG tag; also called scVEGF-7I

Kd [23]: 143 nM | Kd [17]: 140 nM
B7: scVEGFrgd-7B (designed binder)
chain: B5 chain with G183H, G184D, S188A, A189G, Y190V
notes: Soluble protein from P. pastoris with C-terminal hexahistidine tag, with or without N-terminal FLAG tag

binding result [1]: no binding (tested: 1 µM) | binding result [13]: no binding | binding result [14]: no binding | binding result [15]: no binding | Kd [3]: 53 nM | Kd [4]: 8 nM | Kd [5]: 6.6 nM | binding result [7]: no binding (tested: 1 µM) | Kd [6]: 2.8 nM | koff [6]: 0.00061 s⁻¹ | kon [6]: 220000 M⁻¹ s⁻¹ | Kd [8]: 0.4 nM | Kd [9]: 0.7 nM | Kd [10]: 0.9 nM
B9: scVEGF-mE (designed binder)
chain: B8 chain with A3V, K11R, D51G, Y74H, Q75R, K115R, D140N, K141E, T180M
notes: Soluble protein with C-terminal hexahistidine tag, with or without N-terminal FLAG tag (tags not included in the parts); also called scVEGFmut-E
